Measurements reported in a protein production outcome set (Wang et al. 2014).

Assay: label from the status in PepcDB records

Sequence	protein production
MDKLDANVSSEEGFGSVEKVVLLTFLSTVILMAILGNLLVMVAVCWDRQLRKIKTNYFIVSLAFADLLVSVLVMPFGAIELVQDIWIYGEVFCLVRTSLDVLLTTASIFHLCCISLDRYYAICCQPLVYRNKMTPLRIALMLGGCWVIPTFISFLPIMQGWNNIGIIDLIEKRKFNQNSNSTYCVFMVNKPYAITCSVVAFYIPFLLMVLAYYRIYVTAKEHAHQIQMLQRAGASSESRPQSADQHSTHRMRTETKAAKTLCIIMGCFCLCWAPFFVTNIVDPFIDYTVPGQVWTAFLWLGYINSGLNPFLYAFLNKSFRRAFLIILCCDDERYRRPSILGQTVPCSTTTINGSTHVLSGCSPVSSFLLLFCNRPVPV	failed
MDKLNAISIFCKVIETQSFTLAAKQQNISVAMASKLVSQLEEHLKTRLLQRTTRKIMPTEAGMMYYQRCQGILLDLDEADSSITQLTSSLQGNLLISVPRDFGLLFIAPNLPTFMAKHPHLHIEVEFNDKKIDLLSEGYDLALRIGYMEDSSLVSRKIGTTTVHFAASPNYLETNGIPQTPDDLEHHNGLLYKNAMNQVNWVGSRINQTQRFKIQSKVVSNSGFALLNMAKAGLGIANLPKFILGRAFEKGELIEILPEYKQQKLEIHVVYPNRRHLPIKVTGISLNF	failed
MDKMTSSKHYKESMTLLFEGSLRAIPFNIILATLLALDLVYSDVPALIIGAWFFGIVFISLVRSYFCWKIIKRGVEKNRIQATLIEFFLLTFVTGSIWGACYFITLPYVNDLHEFIIILVFGGMCAGAIASLSIYLPAYYAYVFPMLLPVIVYNYALLDVDRTMLATMFLIFIAMLIISAKINHRLLNENFRLFNEKELLINELKVMSITDSLSGLYNRRYFDNIFPQEFNRARRNQYFLSLVSIDIDNFKLINDNLGHPFGDKVLISIADLLKKIFRRSNDILFRLGGDEFAIIIANQPIKETISICETIKNPFKTENLNHTYDSNEQLFMSHVTLSIGIVYIHFESSASIEHAITAADKALYQAKKKGKNQIVVKKLL	failed
MDKNEIGLNAGKVWQLLSNNDKWSYGNLKKKSGLKDKDLGAALGWLAREDKIEFEQEEEELYVYLCVNVYIGLEHHHHHH	failed
MDKPILKDSMKLFEALGTIKSRSMFGGFGLFADETMFALVVNNQLHIRADQQTSSDFETQGLKPYVYKKRGFPVVTKYYAISSELWESSDRLIEVAKKSLENAKLEKEQQASTKPNRLKDLPNLRLATERMLKKAGIDSVAQLEEEGALSAYKAIRDTHSTTVSLELLWALEGAINGTHWSVVPQSRREELMNGLS	not failed
MDKRIDLTEGKITSNLIKLSIPIMATSFIQMAYNMADMIWVGRIGSNAVAAVGTAGFFPWLGMAFVMISKVGAEIKVAQSLGRNDIDSTKDYIKSAFQINIILAIIYSIILLLFNSQLIGFFDLGDAEVIKMAKTYLIAVALGMIFNFLNPVFTAVFTGSGDSRIPFIANTIGLIFNIVFDPILIFGIGIFPEMGVLGAALATVLAQVIVTVTFLYIMIKSKAEYLKINILSGIKINCMKTLFHIGLPAALQSGLFTVFSMFIGKIVAVFGPVPIAVQKVGSQVEAIAWMTAGGISTALSTFVGQNYGAGKLKRIVKGFNITMIISLIVGVFASLVLIFFGEEIFRIFIPEAQAIEQGTVYLKILGYCQILVCVEITTTGAFNGLGRTYIPSIISILLTGARIPMAYIMCKPEFLGLEGIWWAISITGALKGVVVYAIYRYLYKKNKLFKVYKDENGEECISI	failed
MDKRLQQDRIVDKMERFLSTANEEEKDVLSSIVDGLLAKQERRYATYLASLTQIESQEREDGRFEVRLPIGPLVNNPLNMVHGGITATLLDTAMGQMVNRQLPDGQSAVTSELNIHYVKPGMGTYLRAVASIVHQGKQRIVVEGKVYTDQGETVAMGTGSFFVLRSRGLEHHHHHH	not failed
MDKTDSIDIDKQVNTDELFGHPKGLYICFATELWERFSFYGMKYLLLLYLTKYHLFSDGEGLEVLGSYAGLVYTLPVIGGMLADRYLGMKKSVIFGGILLCLGHLLMAVEGHQAVQYAAGTILTSDLTLNNGAVLSAGTLLTETIKIQDLAALNVFYFALSLIVVGVGFLKPNISTIVGQLYSKDDPRRDSGFTIFYMGINLGSFAATIICVYLGETYGWRYGFGAAGIGMLFGLVTFTKGLKYLRGLAEPPDVAVLSEKVWGLISREYLIYLTAILSLSVFWLVIQHEPVVFAAQQVLLVVSGVGLIGYAALKGSREEFQQMLVLMVLIGSTIVFWALFEQAAGSMTLFADRVVERNIAGIEITAGQFGALNAGFIIMLALPFAALWVWLEKFRLNPNIPIKFALGIIQAGLGFGVLVFGAQFPDEAGKISLWWLVLAYLIHTTGELCLSPVGLSAVTKLAIHRVVGLSMGVWFLATALSETLAMRLGKLAAIDTQGGELNSVSDNLIIYTQLFEFLMWIGIGTGVVVLLISPLLKRGMHGVR	failed
MDKTIYEQMLLKNYKGAEGAEEAWDARANHFYKSQQRGRSELVEKVTAILQERGLLAGADLLDIGGGSGRYAVPFAAHAEHVTITDISANMLELARRNAQEAGVTNLTYAKLEWTGADLAAWQWRKRFDLVFASMCPAIRSPEGLYKMLEAAKGFCLINQYIEATDSLSAYLTQVLDPPRSYEPYNDRDMVQAVFNLLWLEGYEPEICYLRQREVTSFTVEGAVEQYGGRYHQAAQLKRMDLAELISRHAGQVTFSVDSKATLAMILWKV	failed
MDKVFGRTQGLKKSELKRISNLYRRRLPKDRVLTPELAHTLAALSAEVGRPLSLVLDREGRVVRVAVGDAKDVPFPEEGWSERRLSGYRLLHTHLGPGGLSRPDLSVLFLRRLDNLAALEVEADGRPGLLHLAFLSPPRALEEDWRVLPPKPFHQYLDLDLWGEVMALEEELSRQARVLEVRDGSGERALLVGVDTGEGPEAEAVLRELAELTRTAGGVPVKQILVFRKSLDPRYLVGLGKLEELKSLAYHENASTLIFGVDLTPAQAREIERVTGLKVLDRTQLILDIFALHAKTPEAQAQVELAQLRYLLPRLVGKGKEMSRLGGGIGTRGPGETKLEVDRRRLQDRIAHLSRKLQDYALRRQEARQKRKRRGVPLVAVVGYTNAGKTTLLRALTRAGEEGEDKLFATLRPLTRRGFLPGVGEVLFTDTVGFIRHMPEELLTAFRATLEEVREADVLVHVLDASEEGALERHRVVRDLLLDLGVEAPVVLALNKADRAAPYDLYFLGERLGGVPVSALKGTGLKELKEALARALLDLGVRPQAWAQYT	failed
MDKYLSANSLEGVIDNEFSMPAPRWLNTYPAGPYRFINREFFIIAYETDPDLLQAILPPDMELLEPVVKFEFIRMPDSTGFGDYTESGQVVPVRYKGEEGGFTISMFLDCHAPIAGGREIWGFPKKLAKPKLFVEEDTLIGILKYGSIDIAIATMGYKHRPLDAEKVLESVKKPVFLLKNIPNVDGTPLVNQLTKTYLTDITVKGAWTGPGSLELHPHALAPISNLYIKKIVSVSHFITDLTLPYGKVVADYLA	not failed
MDLDNLFKTTSSSKDKKNNTIDLVVSDDMAFLQAIDELYAIEGFASPLKVDDIDDESWHKTSAEIKHVVLDLRDCGELVSEVAEISSRLDVSISLIVLSNTDSILMRDKVLSLGANYILWDPELDGLLGALKESGKDTFSPTVKKKSRIAKRVLMLGSKGGVGVSTISAFLSHSLSQQASLKTLLVEHDTLALNSDIFLGLKGLKAQQNSIDLNQSELDAAIAGSYVHPIKDKLDFLALEKNIACISDHADSLFRISNELVDQYNFIIDSLPLNAINELTSEDINERYNRIFVVCEPSVASLRAYHSIKKKLGKAEHRIIFSMTRSQKDYMMPLQGAKEKIKAKDTIDFVYEANLEKLIIQQGIHNTAKIKFTPAIANMVNSLTGKKVKVQKKFAWFKK	failed
MDLFLAMRVYVKVVETGSLTAAAQACSISTTMVGNHLRALEQRLGVSLLQRTTRRQRLTEFGTAYYQRCLEVLGLVAQSEQLAEQAQGEPTGTLRITAPLTFGSELLAPALVGFSQRFPDVKLDLVLTNQRLDMIDNGFDVAIRLGNLAQSSPLIARPLQDYTLTICAAPDYLARHSAPTRPEDLRAHNCLAFAYPAGDEWRTAGTQWRMTGPEGEVLVDVDGSMVANTSAGLYQAARAGMGVVMLPDALVQRDLQEGRLVALLPDYHLPRRPMNLLYVQDRYRLPKLRSFVEFATALWGR	failed
MDLFNAPIAPLQVLHDQQGGVRYWPHLLPPALAQEAFDALRDDADWRSQRREMYDRVVDVPRLLASYRLDDALPAGLPLQRLLDAVQAVLPAPYNAVGLNLYRDGRDSVAMHHDALHTLVAPHPIALLSLGTPRRMQLRAKDGSTRAVALELAPGSLLAMSHASQHTHVHGIAKSTRAVGERISVVFRVRPAQRMAAGQHGPHWEPVQS	failed
MDLGYLKSKESGFIAGMILCTAFMGSSFPSGKYLISEEAMPAFYAGGWRFLLAGGLILAFCAAKDGLGAILPASGGSVIKGALFVLVVGCLQTAGTMGFLNLALTTLSASMASLLLFTNPLWVAILAHFALGETLSWHKVVALVCGILGVSLCLGGGADHGLGGIVIALAGSLCWALCTLISKKHKFDKSVFVFTGWQLTLGALVMLAISKLSGEAYDIDRITGWGIACFIWLVGPASIGSFGLWFTALSRRGATVTSSYLFLVPLFSAVFSMMVLGEAVSPHSLIGGAIIIVALWLINLPQTVSAVWRERLGL	failed
MDLIGLRIRNIRKIKQLTLKEAAKGIISVPYLANIENGVKVASFETLMHIAKRLEIPEEALLIGNEDLNKELLQELKQIFDLLVFSNTKEAGDRLDQIAANVDLLCESPVIELSFYWLQAGFYYKTWEFSKAREIERKYLNSNEKRVVESFPPDLLSYYYYGQAVKHSHATCDYQLAVEYWEKSIDLTDKAAFQVVFQVGLCINYICLNNYEPALKHIECAWNLIKRFPSKDQERITAILYLYGYINFQIGFMTEAKRKFEEVLVFFNMYPEAKTMYSFLVRFKLAEIERVEGNHELFDEKIVCLYEELMAHEASEIGFNNNDYLVITELMVIFAEQGSVLEASNLLAIINKVTEQVMEINFFVTYTETLLLYHQNKQSSYEKKMLDLLKKIDESNDPALIERVKKHASKHFADSTKYKMAYNILA	failed
MDLPVDEWKSYLLQKWASLPTSVQVTISTAETLRDIFLHSSSLLQPEDELFLKRLSKGYLVGKDSDAPLFYREEGNKKFQEKDYTGAAVLYSKGVSHSRPNTEDMSLCHANRSAALFHLGQYETCLKDINIAQTHGYPERLQPKIMLRKAECLVALGRLQEASQTISDLERNFTATPALADVLPQTLQRNLHRLKMKMQEKDSLTESFPAALAKTLEDAALREENEQLSNASSSIGLCVDPLKGRCLVATKDILPGELLVQEDAFVSVLNPGELPPPHHGLDSKWDTRVTNGDLYCHRCLKHTLATVPCDGCSYAKYCSQECLQQAWELYHRTECPLGGLLLTLGVFCHIALRLTLLVGFEDVRKIITKLCDKISNKDICLPESNNQVKTLNYGLGESEKNGNIVETPIPGCDINGKYENNYNAVFNLLPHTENHSPEHKFLCALCVSALCRQLEAASLQAIPTERIVNSSQLKAAVTPELCPDVTIWGVAMLRHMLQLQCNAQAMTTIQHTGPKGSIVTDSRQVRLATGIFPVISLLNHSCSPNTSVSFISTVATIRASQRIRKGQEILHCYGPHKSRMGVAERQQKLRSQYFFDCACPACQTEAHRMAAGPRWEAFCCNSCGAPMQGDDVLRCGSRSCAESAVSRDHLVSRLQDLQQQVRVAQKLLRDGELERAVQRLSGCQRDAESFLWAEHAVVGEIADGLARACAALGDWQKSATHLQRSLCVVEVRHGPSSVEMGHELFKLAQIFFNGFAVPEALSTIQKAEEVLSLHCGPWDDEIQELQKMKSCLLDLPPTPVGPAL	failed
